According to article PMC12120873, “Evening complex component ELF3 interacts with LUX proteins to repress soybean root nodulation”:

Experiments:
INN1-MBP (ELF3a) = target: T1, INN1-MBP (ELF3a) (Glycine max, UniProt K7KI62 1-714); assay: EMSA; INN1 alone; probe taken to be the ENOD40 probe of Table S1; LightShift Chemiluminescent EMSA Kit (Pierce) binding buffer, composition, salt and pH not stated; room temperature 20 min; 6% native PAGE; settings: protein: recombinant; tags: MBP; label: biotin; blunt
T1 sequence: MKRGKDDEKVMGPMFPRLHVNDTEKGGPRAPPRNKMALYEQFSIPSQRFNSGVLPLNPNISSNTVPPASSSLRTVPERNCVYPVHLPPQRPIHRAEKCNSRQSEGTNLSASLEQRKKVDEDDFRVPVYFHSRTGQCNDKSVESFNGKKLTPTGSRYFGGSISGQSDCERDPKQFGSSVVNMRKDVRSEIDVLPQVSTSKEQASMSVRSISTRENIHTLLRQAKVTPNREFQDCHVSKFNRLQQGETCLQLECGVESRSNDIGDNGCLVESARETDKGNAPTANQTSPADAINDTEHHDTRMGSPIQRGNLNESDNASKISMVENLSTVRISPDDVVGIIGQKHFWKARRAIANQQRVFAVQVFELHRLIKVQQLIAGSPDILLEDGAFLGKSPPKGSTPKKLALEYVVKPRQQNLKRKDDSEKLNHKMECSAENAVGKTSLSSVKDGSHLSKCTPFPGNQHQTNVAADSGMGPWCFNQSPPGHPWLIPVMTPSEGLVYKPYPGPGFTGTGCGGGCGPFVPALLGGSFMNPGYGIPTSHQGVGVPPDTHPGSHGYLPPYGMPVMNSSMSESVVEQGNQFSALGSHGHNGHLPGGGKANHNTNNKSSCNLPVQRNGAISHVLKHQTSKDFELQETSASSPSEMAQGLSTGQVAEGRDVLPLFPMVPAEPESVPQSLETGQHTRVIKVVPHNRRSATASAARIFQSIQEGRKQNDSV

LUX1-MBP = target: T2, LUX1-MBP (Glycine max, UniProt K7LTA3 1-306); assay: EMSA; LightShift Chemiluminescent EMSA Kit (Pierce) binding buffer, composition, salt and pH not stated; room temperature 20 min; 6% native PAGE; settings: protein: recombinant; tags: MBP; label: biotin; blunt
T2 sequence: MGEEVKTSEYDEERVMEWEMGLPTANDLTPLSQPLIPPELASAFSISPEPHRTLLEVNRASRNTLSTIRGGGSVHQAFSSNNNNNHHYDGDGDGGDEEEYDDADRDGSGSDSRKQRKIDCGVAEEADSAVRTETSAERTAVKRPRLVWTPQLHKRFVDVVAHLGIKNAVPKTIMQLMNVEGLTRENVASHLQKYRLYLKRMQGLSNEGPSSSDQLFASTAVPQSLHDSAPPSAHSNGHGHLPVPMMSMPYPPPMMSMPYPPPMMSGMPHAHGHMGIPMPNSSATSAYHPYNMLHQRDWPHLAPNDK

B1: probe-ENOD40 (P1 region) (dsDNA)
DNA 1: TTGACATTCATATCCTTTGTATTTCAATTAGATTAGATATGTTCTACGGA
DNA 2: TCCGTAGAACATATCTAATCTAATTGAAATACAAAGGATATGAATGTCAA
binding result (INN1-MBP (ELF3a)): no binding | binding result (LUX1-MBP): binds
